Results from patent publication US20180275124A1 (DEUTSCHES KREBSFORSCHUNGSZENTRUM STIFTUNG DES FFENTLICHEN …, published 2018).

Key:
Assay in all cases: surface plasmon resonance, Dectin-1 immobilized
[1] = biological target: T1, recombinant murine annexin A1 (murine, UniProt P10107 1-346)
T1 construct: Expressed in E. coli from pET41a with C-terminal FLAG tag, PreScission site and Protein A tag; the Protein A tag is cleaved off; also called mAnx1; mAnxA1; not shown: C-terminal FLAG tag and what remains of the PreScission site after cleavage
T1 sequence (looked up): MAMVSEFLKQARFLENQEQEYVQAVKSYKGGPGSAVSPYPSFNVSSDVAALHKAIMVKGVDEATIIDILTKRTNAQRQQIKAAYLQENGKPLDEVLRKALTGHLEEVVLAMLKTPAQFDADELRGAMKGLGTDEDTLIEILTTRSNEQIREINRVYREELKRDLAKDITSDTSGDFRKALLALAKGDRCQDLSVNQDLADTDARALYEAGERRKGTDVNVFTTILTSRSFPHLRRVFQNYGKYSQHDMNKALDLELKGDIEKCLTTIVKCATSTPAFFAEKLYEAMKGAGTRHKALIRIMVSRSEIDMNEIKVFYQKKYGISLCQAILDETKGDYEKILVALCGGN

[2] = biological target: T2, recombinant murine annexin A5 (murine, UniProt P48036 1-319)
T2 construct: Recombinant protein; also called mAnxA5; AnxA5
T2 sequence (looked up): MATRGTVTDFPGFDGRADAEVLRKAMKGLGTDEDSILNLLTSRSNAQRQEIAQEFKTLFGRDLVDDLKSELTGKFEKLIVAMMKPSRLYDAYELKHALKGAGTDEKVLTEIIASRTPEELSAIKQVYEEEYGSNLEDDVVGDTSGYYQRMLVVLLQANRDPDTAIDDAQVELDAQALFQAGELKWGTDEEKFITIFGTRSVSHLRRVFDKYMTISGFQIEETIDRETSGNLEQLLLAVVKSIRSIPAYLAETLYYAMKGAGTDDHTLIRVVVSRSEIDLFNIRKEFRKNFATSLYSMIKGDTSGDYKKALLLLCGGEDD

[3] = biological target: T3, murine annexin A1 core domain (murine, UniProt P10107 41-346, limits assumed)
T3 construct: domain: core domain; also called mAnxA1 core; AnxA1 core domain
T3 sequence (looked up): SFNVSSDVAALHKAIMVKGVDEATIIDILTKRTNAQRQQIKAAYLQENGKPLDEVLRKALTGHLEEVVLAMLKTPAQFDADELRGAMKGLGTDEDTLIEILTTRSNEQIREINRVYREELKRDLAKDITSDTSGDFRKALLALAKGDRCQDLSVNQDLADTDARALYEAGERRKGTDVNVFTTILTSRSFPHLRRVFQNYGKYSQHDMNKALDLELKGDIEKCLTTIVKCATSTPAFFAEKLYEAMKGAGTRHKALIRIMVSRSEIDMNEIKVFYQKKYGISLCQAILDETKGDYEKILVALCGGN

[4] = biological target: T4, recombinant murine annexin A13 (murine, UniProt Q99JG3 1-317)
T4 construct: Recombinant protein; also called mAnxA13; AnxA13
T4 sequence (looked up): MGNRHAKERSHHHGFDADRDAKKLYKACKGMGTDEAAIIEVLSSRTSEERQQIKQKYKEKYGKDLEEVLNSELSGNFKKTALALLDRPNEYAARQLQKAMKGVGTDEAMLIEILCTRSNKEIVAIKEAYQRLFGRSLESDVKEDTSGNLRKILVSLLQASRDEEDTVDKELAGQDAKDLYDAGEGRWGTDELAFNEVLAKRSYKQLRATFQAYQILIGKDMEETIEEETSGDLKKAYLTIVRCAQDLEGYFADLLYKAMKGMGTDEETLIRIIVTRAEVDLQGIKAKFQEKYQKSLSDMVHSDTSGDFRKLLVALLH

Measured: Kd

B1: Dectin-1 (receptor)
chain: GHNSGRNPEEKDNFLSRNKENHKPTESSLDEKVAPSKASQTTGGFSQPCLPNWIMHGKSCYLFSFSGNSWYGSKRHCSQLGAHLLKIDNSKEFEFIESQTSSHRINAFWIGLSRNQSEGPWFWEDGSAFFPNSFQVRNTAPQESLLHNCVWIHGSEVYNQICNTSSYSICEKEL
~100 nM: all assays above
